From the supplement of paper PMC10567573

B1: FLOT1 (parent)
chain: QMAKKAEAFQLYQEAAQLDMLLEK

Variants of: B1
Test: protein stability index of a GFP-peptide fusion (GPS, HEK-293T) (PSI 1-6); higher = more stable
Conditions: c terminus: a fixed tail appended
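Further: lentivirally expressed fusions sorted by FACS into six bins by GFP to DsRed ratio, PSI derived from sequencing read proportions per bin multiplied by bin number.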

Protein stability index: each site, then its substitutions
A3: N 3.51 | T 1.16 | V 1.29 | M 2.44 | P 1.63 | Q 1.93
Q13: F 1.52 | N 3.82 | T 2.85 | E 2.92 | Y 1.96 | M 3.5 | H 3.6 | R 2.81 | K 2.62
A6: N 3.7 | D 1.57 | F 1.99 | Y 1.53 | C 1.53 | M 1.32 | W 2.21 | H 1.99 | R 1.52 | V 1.75 | Q 1.91
L21: I 2 | T 2.97 | F 2.35 | N 3.38 | M 1.84 | D 2.58 | E 2.7 | H 3.47 | C 2.9 | W 1.69 | R 3.19
A16: S 3.68 | E 3.98 | V 1.1 | H 3.3 | Q 3.31 | N 2.45 | L 2.63 | R 3.45 | P 4.27 | M 2.79
F9: K 2.63 | T 2.11 | E 3.65 | P 2.08 | Q 1 | D 3.04 | I 1.88 | L 2.37 | C 1.41 | H 2.26 | A 2 | S 2.01
K5: H 1.75 | E 2.21 | N 1.42 | D 2.1 | Q 1.59 | P 2.83 | V 1.78 | S 1.22 | I 2.49
L22: Y 1.5 | A 1.32 | R 2.42 | S 2.63 | V 2.33 | M 2.02 | K 3.07 | C 2.42 | G 3.76 | F 2.23 | H 2.48 | T 3.36
Q10: E 2.49 | C 1.74 | N 2.03 | A 2.07 | F 1.28 | T 2.79 | Y 2.59 | M 1.52 | R 1.87 | G 1.72 | H 2.03 | P 2.08
Q1: D 1.9 | I 2.83 | V 2.23 | L 2.5
E14: A 1.3 | P 3.12 | S 2.03 | W 1.96 | R 2.21 | G 2.58 | K 1.83 | N 2.5 | H 1.94 | C 2.61 | Y 2.71 | Q 1.36
E7: H 2.24 | T 1.36 | S 4 | R 1.22 | V 1.91 | L 2.95 | M 1.64 | D 1.55
M2: H 1.57 | V 1.22 | I 1.36 | D 2.45 | F 1.78 | N 1.92 | T 1.76 | A 1.46 | S 1.14 | P 1.46
E23: P 3.12 | I 1.62 | W 1.98 | A 2.29 | M 1.28 | Q 1.75 | D 3.79 | K 2.11
Q17: L 1.58 | F 2.6 | K 1.65 | E 1.89 | W 4.61 | S 1.88 | T 1.19 | C 1.71
L18: N 2.66 | F 2.13 | W 2.03 | G 3.8 | H 1.83 | I 2.17 | K 2.9 | P 3.9 | T 3.56 | Y 1.46 | C 3.66 | V 1.85 | A 1.85
D19: P 3.95 | E 1.87 | Q 1.83 | V 3.13 | A 2.65 | S 1.29 | Y 2.35 | L 1.24 | N 1.91
M20: R 2.98 | G 3.94 | P 4.52
